Measurements reported in US20200317768A1 (published 2020).
Numbering of substitutions follows the chain as printed. Numbers in names are those of the source. Each block holds one binder with its values, some of them ahead of it.

Assays:
[1] = target: T1, human FcγRIIaR extracellular domain, C-terminal His-tag (human, UniProt P12318 34-217); assay: SPR (BIACORE); KD of SG1 / KD of variant
T1 construct: also called human FcγRIIa (type R); FcgRIIaR; not shown: His-tag added to C-terminus
T1 chain: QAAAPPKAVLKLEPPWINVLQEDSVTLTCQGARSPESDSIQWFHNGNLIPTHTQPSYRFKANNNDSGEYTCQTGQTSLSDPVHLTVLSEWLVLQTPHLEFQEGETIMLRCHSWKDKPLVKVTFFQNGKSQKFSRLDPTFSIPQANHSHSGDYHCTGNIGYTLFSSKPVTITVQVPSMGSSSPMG

[2] = target: T2, cynomolgus monkey FcγRIIa1 extracellular domain, C-terminal His-tag (cynomolgus monkey); assay: SPR (BIACORE); KD of SG1 / KD of variant
T2 construct: also called cyno FcγRIIa1; cynoFcgRIIa1; not shown: His-tag added to C-terminus
T2 chain: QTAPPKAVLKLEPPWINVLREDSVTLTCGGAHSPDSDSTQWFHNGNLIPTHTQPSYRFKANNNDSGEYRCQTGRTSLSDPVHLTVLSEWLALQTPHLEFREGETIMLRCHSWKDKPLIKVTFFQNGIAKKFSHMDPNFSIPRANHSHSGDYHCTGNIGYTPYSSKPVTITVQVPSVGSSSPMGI

[3] = target: T1, human FcγRIIaR extracellular domain, …; assay: SPR (BIACORE); KD of parent SG1 / KD of variant
[4] = target: T3, cynomolgus monkey FcγRIIa2 extracellular domain, C-terminal His-tag (cynomolgus monkey); assay: SPR (BIACORE); KD of parent SG1 / KD of variant
T3 construct: also called cyno FcγRIIa2; cynoFcgRIIa2; not shown: His-tag added to C-terminus
T3 chain: T2 chain with P95T, T121A, I127K, A128S, K130N, D135N, R142Q

[5] = target: T4, human FcγRIIaH extracellular domain, C-terminal His-tag (human, UniProt P12318 34-217); assay: SPR (BIACORE); KD of parent SG1 / KD of variant
T4 construct: also called human FcγRIIa (type H); FcgRIIaH; not shown: His-tag added to C-terminus
T4 sequence: T1 chain with R134H

[6] = target: T5, human FcγRIIb extracellular domain, C-terminal His-tag (human, UniProt P31994 43-217); assay: SPR (BIACORE); KD of parent SG1 / KD of variant
T5 construct: also called humanFcgRIIb; not shown: His-tag added to C-terminus
T5 sequence: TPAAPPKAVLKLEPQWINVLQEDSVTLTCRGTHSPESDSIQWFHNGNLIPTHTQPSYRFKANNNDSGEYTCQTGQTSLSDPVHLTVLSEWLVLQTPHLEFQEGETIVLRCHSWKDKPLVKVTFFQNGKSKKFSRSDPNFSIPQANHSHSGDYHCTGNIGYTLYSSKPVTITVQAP

[7] = target: T6, cynomolgus monkey FcγRIIb extracellular domain, C-terminal His-tag (cynomolgus monkey); assay: SPR (BIACORE); KD of parent SG1 / KD of variant
T6 construct: also called cyno FcγRIIb; cynoFcγRIIb; not shown: His-tag added to C-terminus
T6 chain: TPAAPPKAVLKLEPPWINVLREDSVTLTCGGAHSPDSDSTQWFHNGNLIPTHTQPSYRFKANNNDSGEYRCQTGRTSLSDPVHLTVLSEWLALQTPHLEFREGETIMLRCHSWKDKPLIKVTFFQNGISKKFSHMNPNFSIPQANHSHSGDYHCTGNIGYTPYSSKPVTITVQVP

[8] = target: T7, human FcγRIIIaV extracellular domain, C-terminal His-tag (human, UniProt P08637 17-208); assay: SPR (BIACORE); KD of parent SG1 / KD of variant
T7 construct: also called FcgRIIIaV; not shown: His-tag added to C-terminus

[9] = target: T2, cynomolgus monkey FcγRIIa1 …; assay: SPR (BIACORE); KD of parent SG1 / KD of variant
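Note: relative to parent M103205H795-SG1 carrying the SG1 human heavy chain constant region.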

T7 sequence (P08637 17-208 F176V): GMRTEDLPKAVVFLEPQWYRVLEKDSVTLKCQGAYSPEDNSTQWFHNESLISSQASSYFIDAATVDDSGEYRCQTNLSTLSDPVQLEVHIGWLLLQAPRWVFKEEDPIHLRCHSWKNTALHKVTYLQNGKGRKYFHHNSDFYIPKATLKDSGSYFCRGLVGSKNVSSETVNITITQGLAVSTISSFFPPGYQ

KD fold (SG1 = 1) [1]: 1.3 fold | KD fold (SG1 = 1) [2]: 2.9 fold
B3: M103205H795-MY101 / M103202L889-SK1 (antibody, human IgG1, kappa)
heavy: QVTLKESGPVLVKPTETLTLTCTVSGIDLSHDDISWVRQAPGKGLEWVGIISYAGSTYYASWAKGRLTISKDTSKNQVVLTMTNMDPVDTATYYCARGVPAYSHGGDLWGQGTLVTVSSASTKGPSVFPLAPSSKSTSGGTAALGCLVKDYFPEPVTVSWNSGALTSGVHTFPAVLQSSGLYSLSSVVTVPSSSLGTQTYICNVNHKPSNTKVDKKVEPKSCDKTHTCPPCPAPELLNGPSVFLFPPKPKDTLMISRTPEVTCVVVDVSEEDPEVKFNWYVDGVEVHNAKTKPREEQYNSTYRVVSVLTVLHQDWLNGKEYKCKVSNKALPKPIEKTISKAKGQPREPQVYTLPPSREEMTKNQVSLTCLVKGFYPSDIAVEWESNGQPENNYKTTPMVLDSDGSFFLYSKLTVDKSRWQQGNVFSCSVMHEALHNHYTQKSLSLSP
light: DIVMTQSPATLSLSPGERATLSCTSSQSVYHANWLSWFQQKPGQPPKLLIYWASTLAYGVPSRFSGSGSGTDFTLTISSLQPEDAATYYCAGGYGGGRYAFGQGTKVEIKRTVAAPSVFIFPPSDEQLKSGTASVVCLLNNFYPREAKVQWKVDNALQSGNSQESVTEQDSKDSTYSLSSTLTLSKADYEKHKVYACEVTHQGLSSPVTKSFNRGEC
notes: CH with G236N/H268E/A330K/P396M against SG1 (EU numbering); also called MS1032LO06-MY101

KD fold (SG1 = 1) [1]: 0.6 fold | KD fold (SG1 = 1) [2]: 2.3 fold
B4: M103205H795-MY201 / M103202L889-SK1 (antibody, human IgG1, kappa)
heavy: B3 heavy with E270D, M398P
light: B3 light
notes: CH with G236N/H268D/A330K against SG1 (EU numbering); also called MS1032LO06-MY201

KD fold (SG1 = 1) [1]: 0.9 fold | KD fold (SG1 = 1) [2]: 3.6 fold
B6: M103205H795-MY344 / M103202L889-SK1 (antibody, human IgG1, kappa)
heavy: B3 heavy with E270D, Q297L, Q313R, M398P, D415K
light: B3 light
notes: CH with G236N/H268D/Q295L/Q311R/A330K/D413K against SG1 (EU numbering); also called MS1032LO06-MY344

KD fold (SG1 = 1) [1]: 3.8 fold | KD fold (SG1 = 1) [2]: 1.6 fold
B7: M103205H795-MY335 / M103202L889-SK1 (antibody, human IgG1, kappa)
heavy: B3 heavy with N238T, E270D, Q313R, M398P, D415K
light: B3 light
notes: CH with G236T/H268D/Q311R/A330K/D413K against SG1 (EU numbering); also called MS1032LO06-MY335

The next lines start with the binder.

B1: MS_M103205H795-SG1/M103202L889-SK1 (antibody, human IgG1, kappa)
heavy: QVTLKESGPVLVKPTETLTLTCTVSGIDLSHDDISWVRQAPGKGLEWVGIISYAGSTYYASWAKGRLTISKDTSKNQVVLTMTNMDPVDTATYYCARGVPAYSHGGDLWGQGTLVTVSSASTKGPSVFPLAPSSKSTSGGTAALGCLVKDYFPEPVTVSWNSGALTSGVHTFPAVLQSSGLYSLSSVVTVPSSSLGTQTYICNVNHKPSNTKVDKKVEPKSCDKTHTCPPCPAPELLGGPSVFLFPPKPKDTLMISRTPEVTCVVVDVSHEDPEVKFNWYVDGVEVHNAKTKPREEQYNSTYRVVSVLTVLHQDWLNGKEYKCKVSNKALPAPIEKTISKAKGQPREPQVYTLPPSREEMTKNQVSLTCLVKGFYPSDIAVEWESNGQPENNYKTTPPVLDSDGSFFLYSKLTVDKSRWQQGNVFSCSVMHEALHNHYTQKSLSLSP
light: B3 light
notes: Parent antibody with SG1 human heavy chain constant region; also called MS1032LO06-SG1
KD fold (SG1 = 1) [1]: 1 fold | KD fold (SG1 = 1) [2]: 1 fold | KD fold (SG1 = 1) [3]: 1 fold | KD fold (SG1 = 1) [4]: 1 fold | KD fold (SG1 = 1) [5]: 1 fold | KD fold (SG1 = 1) [6]: 1 fold | KD fold (SG1 = 1) [7]: 1 fold | KD fold (SG1 = 1) [8]: 1 fold | KD fold (SG1 = 1) [9]: 1 fold

B2: M103205H795-PK2 / M103202L889-SK1 (antibody, human IgG1, kappa)
heavy: B3 heavy with S402R, D415K
light: B3 light
notes: CH with G236N/H268E/A330K/P396M/S400R/D413K against SG1 (EU numbering); also called MS1032LO06-PK2; MS103205H795-PK2
KD fold (SG1 = 1) [1]: 1 fold | KD fold (SG1 = 1) [2]: 2.5 fold

B5: M103205H795-MY351 / M103202L889-SK1 (antibody, human IgG1, kappa)
heavy: B3 heavy with E270D, Q313R, M398P, D415K
light: B3 light
notes: CH with G236N/H268D/Q311R/A330K/D413K against SG1 (EU numbering); also called MS1032LO06-MY351
KD fold (SG1 = 1) [1]: 0.7 fold | KD fold (SG1 = 1) [2]: 3.5 fold

B8: M103205H795-MY205 / M103202L889-SK1 (antibody, human IgG1, kappa)
heavy: B3 heavy with E270D, Q297L, M398P
light: B3 light
notes: CH with G236N/H268D/Q295L/A330K against SG1 (EU numbering); also called MS1032LO06-MY205
KD fold (SG1 = 1) [1]: 0.8 fold | KD fold (SG1 = 1) [2]: 3.6 fold
